Assay results as given in paper PMC7615342.

How the values were obtained:
[1] = Flow cytometry, surface versus total PD-1 staining; settings: glycan changed form; control: sgNT Tregs
[2] = Flow cytometry, PD-1+ frequency and MFI, ex vivo Tregs; settings: glycan changed form; control: DMSO-treated Tregs

B1: PD-1: sgSlc35c1 (protein)
parent chain: MWVRQVPWSFTWAVLQLSWQSGWLLEVPNGPWRSLTFYPAWLTVSEGANATFTCSLSNWSEDLMLNWNRLSPSNQTEKQAAFCNGLSQPVQDARFQIIQLPNRHDFHMNILDTRRNDSGIYLCGAISLHPKAKIEESPGAELVVTERILETSTRYPSPSPKPEGRFQGMVIGIMSALVGIPVLLLLAWALAVFCSTSMSEARGAGSKDDTLKEEPSAAPVPSVAYEELDFQGREKTPELPTACVHTEYATIVFTEGLGASAMGRRGSADGLQGPRPPRHEDGHCSWPL
localisation_or_trafficking [1]: decreases

B2: PD-1: 2FF 100 μM, 6 days (protein)
parent chain: B1 parent chain
expression_or_secretion [2]: decreases
